Reference: paper PMC7679444

B1: TMEM59 peptide (residues 268–280), wild type [modified: long spacer (Tds) at the N-terminal end, used for immobilisation; long spacer (Tds) at the N-terminal end, used for immobilisation] [not stated] / GST-HA-ATG16L1(231–607) … (parent)
chain 1: PLPVEQDDDIEVIVDETSDHTEETSPVRAISRAATKRLSQPAGGLLDSITNIFGRRSVSSFPVPQDNVDTHPGSGKEVRVPATALCVFDAHDGEVNAVQFSPGSRLLATGGMDRRVKLWEVFGEKCEFKGSLSGSNAGITSIEFDSAGSYLLAASNDFASRIWTVDDYRLRHTLTGHSGKVLSAKFLLDNARIVSGSHDRTLKLWDLRSKVCIKTVFAGSSCNDIVCTEQCVMSGHFDKKIRFWDIRSESIVREMELLGKITALDLNPERTELLSCSRDDLLKVIDLRTNAIKQTFSAPGFKCGSDWTRVVFSPDGSYVAAGSAEGSLYIWSVLTGKVEKVLSKQHSSSINAVAWSPSGSHVVSVDKGCKAVLWAQY
chain 2: YVPSEKLSIYGDL

Variants of: B1
Assay: peptide microarray
Details: with GST-HA-ATG16L1(231–607) [human], parent: 100

Variant	percent of parent (ligand 800, 600, 400 nM)	percent of parent (ligand 200, 50, 20 nM)
chain 2 L13T	5 % WT	
chain 2 L13A	50 % WT	
chain 2 L13N	30 % WT	
chain 2 L13R	48 % WT	
chain 2 L13M	36 % WT	
chain 2 L13E	60 % WT	
chain 2 L13V	123 % WT	
chain 2 L13Q	37 % WT	
chain 2 L13G	54 % WT	
chain 2 L13Y	201 % WT	
chain 2 L13K	21 % WT	
chain 2 L13F	173 % WT	
chain 2 L13S	32 % WT	
chain 2 L13H	66 % WT	
chain 2 L13W	196 % WT	
chain 2 L13I	177 % WT	
chain 2 L13P	94 % WT	
chain 2 L13D	27 % WT	
chain 2 K6V	56 % WT	50 % WT
chain 2 K6F	114 % WT	96 % WT
chain 2 K6P	3 % WT	7 % WT
chain 2 K6D	6 % WT	7 % WT
chain 2 K6G	6 % WT	6 % WT

Variant	percent of parent (ligand 800, 600, 400 nM)	percent of parent (ligand 200, 50, 20 nM)
chain 2 K6Y	74 % WT	105 % WT
chain 2 K6I	61 % WT	53 % WT
chain 2 K6S	11 % WT	8 % WT
chain 2 K6A	7 % WT	6 % WT
chain 2 K6Q	4 % WT	3 % WT
chain 2 K6W	106 % WT	126 % WT
chain 2 K6N	2 % WT	4 % WT
chain 2 K6R	11 % WT	8 % WT
chain 2 K6L	51 % WT	35 % WT
chain 2 K6H	21 % WT	28 % WT
chain 2 K6T	12 % WT	7 % WT
chain 2 K6M	10 % WT	7 % WT
chain 2 K6E	3 % WT	2 % WT
chain 2 G11T	117 % WT	
chain 2 G11I	1 % WT	
chain 2 G11M	40 % WT	
chain 2 G11Q	31 % WT	
chain 2 G11F	43 % WT	
chain 2 G11E	129 % WT	
chain 2 G11S	103 % WT	
chain 2 G11L	17 % WT	
chain 2 G11W	165 % WT	
chain 2 G11P	155 % WT	

Variant	percent of parent (ligand 800, 600, 400 nM)	percent of parent (ligand 200, 50, 20 nM)
chain 2 G11Y	150 % WT	
chain 2 G11H	156 % WT	
chain 2 G11N	140 % WT	
chain 2 G11K	127 % WT	
chain 2 G11A	18 % WT	
chain 2 G11R	62 % WT	
chain 2 G11D	146 % WT	
chain 2 G11V	13 % WT	
chain 2 P3A	168 % WT	328 % WT
chain 2 P3E	86 % WT	89 % WT
chain 2 P3N	110 % WT	109 % WT
chain 2 P3F	168 % WT	472 % WT
chain 2 P3I	172 % WT	343 % WT
chain 2 P3R	131 % WT	216 % WT
chain 2 P3H	145 % WT	225 % WT
chain 2 P3K	181 % WT	499 % WT
chain 2 P3L	189 % WT	493 % WT
chain 2 P3G	131 % WT	143 % WT
chain 2 P3Q	152 % WT	254 % WT
chain 2 P3M	184 % WT	435 % WT
chain 2 P3D	107 % WT	104 % WT

Results, then the variant that gave them:

percent of parent (ligand 800, 600, 400 nM)	percent of parent (ligand 200, 50, 20 nM)	Variant
10 % WT	12 % WT	chain 2 Y1M
41 % WT	44 % WT	chain 2 Y1L
16 % WT	15 % WT	chain 2 Y1V
18 % WT	17 % WT	chain 2 Y1A
12 % WT	10 % WT	chain 2 Y1D
22 % WT	21 % WT	chain 2 Y1N
121 % WT	139 % WT	chain 2 Y1F
28 % WT	29 % WT	chain 2 Y1S
28 % WT	30 % WT	chain 2 Y1H
121 % WT	120 % WT	chain 2 Y1W
79 % WT	75 % WT	chain 2 Y1I
92 % WT	94 % WT	chain 2 Y1G
12 % WT	10 % WT	chain 2 Y1Q
19 % WT	17 % WT	chain 2 Y1K
17 % WT	17 % WT	chain 2 Y1T
17 % WT	16 % WT	chain 2 Y1P
17 % WT	12 % WT	chain 2 Y1R
13 % WT	13 % WT	chain 2 Y1E
45 % WT	38 % WT	chain 2 S4E
73 % WT	78 % WT	chain 2 S4A
155 % WT	176 % WT	chain 2 S4I
32 % WT	31 % WT	chain 2 S4M
1 % WT	1 % WT	chain 2 S4F
106 % WT	122 % WT	chain 2 S4H

percent of parent (ligand 800, 600, 400 nM)	percent of parent (ligand 200, 50, 20 nM)	Variant
110 % WT	110 % WT	chain 2 S4R
64 % WT	49 % WT	chain 2 S4G
94 % WT	88 % WT	chain 2 S4Q
180 % WT	262 % WT	chain 2 S4K
144 % WT	156 % WT	chain 2 S4V
187 % WT	352 % WT	chain 2 S4W
30 % WT	38 % WT	chain 2 S4N
69 % WT	62 % WT	chain 2 S4T
29 % WT	33 % WT	chain 2 S4D
188 % WT	320 % WT	chain 2 S4Y
157 % WT	163 % WT	chain 2 S4L
65 % WT	63 % WT	chain 2 S4P
104 % WT	134 % WT	chain 2 P3Y
176 % WT	334 % WT	chain 2 P3V
191 % WT	518 % WT	chain 2 P3T
188 % WT	483 % WT	chain 2 P3W
138 % WT	184 % WT	chain 2 P3S
4 % WT		chain 2 Y10D
2 % WT		chain 2 Y10Q
21 % WT		chain 2 Y10I
2 % WT		chain 2 Y10E
36 % WT		chain 2 Y10L
3 % WT		chain 2 Y10P
3 % WT		chain 2 Y10S
